Results reported in the supplement of paper PMC7877785.
± gives the uncertainty stated by the source.

Assay: self-splicing fitness, log relative to wild type (ln ratio); higher = more splicing; Tetrahymena group I intron in knt gene, E. coli kanamycin selection, DiMSum; sequences stand for … in CUCUCU…GGAGGGAAAAGUUAUCAGGCAUGCACCUGGUAGCUAGUCUUUAAACCAAUAGAUUGCAUCGGUUUAAAAGGCAAGACCGUCAAAUUGCGGGAAAGGGGUCAACAGCCGUUCAGUACCAAGUCUCAGGGGAAACUUUGAGAUGGCCUUGCAAAGGGUAUGGUAAUAAGCUGACGGACAUGGUCCUAACCACGCAGCCAAGUCCUAAGUCAACAGAUCUUCUGUUGAUAUGGAUGCAGUUCACAGACUAAAUGUCGGUCGGGGAAGAUGUAUUCUUCUCAUAAGAUAUAGUCGGACCUCUCCUUAAUGGGAGCUAGCGGAUGAAGUGAUGCAACACUGGAGCCGCUGGGAACUAAUUUGUAUGCGAAAGUAUAUUGAUUAGUUUUGGAGUACUCGUGGUCG
How it was run: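 Colonies from six replicate transformations of E. coli BL21(DE3) were pooled and amplicon-sequenced on an Illumina HiSeq 2500. The library placed an intron with all eight P1ex-region nucleotides randomised inside the knt kanamycin-resistance gene on pET-22b(+), and cells grew overnight at 37°C or 30°C on LB agar with or without 25 μg/mL kanamycin (plus 100 μg/mL carbenicillin, 50 μM IPTG, 0.2% rhamnose). Fitness is the DiMSum error-weighted combination of wild-type-normalised replicate fold changes, kanamycin versus none.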

Row | Sequence | self-splicing fitness (ln) (30 °C) | self-splicing fitness (ln) (37 °C)
1 | UUGUAGCAAUAUUACGGCAG | -0.0514 ± 0.14 | 0.374 ± 0.18
2 | CGACAGCAAUAUUACGCGAU | -2.8 ± 0.22 | -2.46 ± 0.28
3 | AUCAAGCAAUAUUACGUGAU | -3.81 ± 0.2 | -2.23 ± 0.17
4 | AAGUAGCAAUAUUACGAUUA | -0.56 ± 0.1 | -0.688 ± 0.08
5 | CGCGAGCAAUAUUACGUCUG | -0.412 ± 0.067 | -0.178 ± 0.073
6 | UGAAAGCAAUAUUACGGAGA | -3.09 ± 0.2 | -2.54 ± 0.23
7 | CGCCAGCAAUAUUACGCGGG | -4.25 ± 0.2 | -3.11 ± 0.24
8 | UGUCAGCAAUAUUACGUCAC | -3.9 ± 0.39 | -3.29 ± 0.37
9 | AACGAGCAAUAUUACGAACC | -3.57 ± 0.49 | -1.66 ± 0.35
10 | UAACAGCAAUAUUACGUGAC | -3.68 ± 0.2 | -2.46 ± 0.17
11 | UCGUAGCAAUAUUACGGCUU | -2.85 ± 0.46 | -1.64 ± 0.33
12 | AUGAAGCAAUAUUACGUCAA | -0.911 ± 0.064 | -0.148 ± 0.076
13 | CGAAAGCAAUAUUACGAACA | -1.92 ± 0.13 | -0.112 ± 0.12
14 | AGACAGCAAUAUUACGUAGU | -3.27 ± 0.1 | -1.88 ± 0.1
15 | UCGGAGCAAUAUUACGGUUA | -2.38 ± 0.47 | -2.3 ± 0.28
16 | AGAGAGCAAUAUUACGAUCG | -1.94 ± 0.11 | -0.822 ± 0.18
17 | UCACAGCAAUAUUACGAAUC | – | -1.26 ± 0.17
18 | GGGAAGCAAUAUUACGUUAA | -2.82 ± 0.18 | -1.73 ± 0.19
19 | CAGGAGCAAUAUUACGCUGC | -4.3 ± 0.36 | -2.82 ± 0.36
20 | GCCCAGCAAUAUUACGCAUU | -0.902 ± 0.05 | -0.248 ± 0.063
21 | UACAAGCAAUAUUACGCGGG | -2.43 ± 0.086 | -1.25 ± 0.099
22 | GCUCAGCAAUAUUACGAUAA | -0.805 ± 0.092 | -0.579 ± 0.11
23 | UCUGAGCAAUAUUACGUGCG | -3 ± 0.1 | -1.34 ± 0.09
24 | AGCAAGCAAUAUUACGUACC | -0.796 ± 0.078 | 0.398 ± 0.097
25 | UCCAAGCAAUAUUACGGGGU | -2.76 ± 0.11 | -1.96 ± 0.13

Row | Sequence | self-splicing fitness (ln) (30 °C) | self-splicing fitness (ln) (37 °C)
26 | CUAGAGCAAUAUUACGUUAU | -3.29 ± 0.16 | -2.3 ± 0.23
27 | AUAUAGCAAUAUUACGAACA | -0.789 ± 0.2 | -0.183 ± 0.21
28 | CUACAGCAAUAUUACGUCUG | -1.77 ± 0.1 | -1.45 ± 0.13
29 | AUGAAGCAAUAUUACGUAGA | -2.86 ± 0.18 | -1.84 ± 0.19
30 | AAUUAGCAAUAUUACGAAUA | -1.67 ± 0.41 | 0.49 ± 0.3
31 | CUGCAGCAAUAUUACGAAGG | -2.05 ± 0.13 | -1.06 ± 0.16
32 | UCAGAGCAAUAUUACGUGCA | -2.3 ± 0.16 | -2.1 ± 0.18
33 | UAGCAGCAAUAUUACGACGA | -0.341 ± 0.07 | 0.256 ± 0.079
34 | UGCGAGCAAUAUUACGACCA | -0.371 ± 0.18 | –
35 | UUUAAGCAAUAUUACGCGCU | -1.15 ± 0.18 | -0.609 ± 0.2
36 | AUAAAGCAAUAUUACGGGAC | -1.72 ± 0.1 | -2.4 ± 0.16
37 | CGAUAGCAAUAUUACGCCGA | -1.92 ± 0.21 | -2.05 ± 0.28
38 | UAAAAGCAAUAUUACGAUAC | -2.36 ± 0.31 | -3.93 ± 0.46
39 | GACGAGCAAUAUUACGGCUG | -1.82 ± 0.13 | -1.13 ± 0.13
40 | GAAGAGCAAUAUUACGCGUA | -3.68 ± 0.37 | -2.05 ± 0.22
41 | GACUAGCAAUAUUACGUCAU | -2.73 ± 0.17 | -1.1 ± 0.17
42 | CCAUAGCAAUAUUACGCACA | -3.14 ± 0.28 | -1.45 ± 0.27
43 | GGCAAGCAAUAUUACGUAGA | 0.226 ± 0.077 | 0.582 ± 0.11
44 | AUACAGCAAUAUUACGUCCU | -0.382 ± 0.073 | 1.06 ± 0.096
45 | CCAGAGCAAUAUUACGGACU | -3.62 ± 0.48 | -0.487 ± 0.4
46 | AUCGAGCAAUAUUACGUCGG | -2 ± 0.13 | -1.42 ± 0.16
47 | ACUAAGCAAUAUUACGGCGC | -0.144 ± 0.099 | -0.477 ± 0.096
48 | UUCGAGCAAUAUUACGAUAU | -3.85 ± 0.33 | -2.51 ± 0.49
49 | AGCGAGCAAUAUUACGGUCC | -0.807 ± 0.14 | -0.398 ± 0.18
50 | CCUUAGCAAUAUUACGCCGG | -3.82 ± 0.28 | -2.73 ± 0.26

Row | Sequence | self-splicing fitness (ln) (30 °C) | self-splicing fitness (ln) (37 °C)
51 | UUAAAGCAAUAUUACGUCGU | -1.76 ± 0.11 | -0.737 ± 0.12
52 | CCUAAGCAAUAUUACGGCAA | -3.72 ± 0.21 | -2.91 ± 0.23
53 | GCUCAGCAAUAUUACGAAGU | -1.63 ± 0.16 | -0.416 ± 0.15
54 | CCUUAGCAAUAUUACGGGGG | -3.17 ± 0.23 | -1.39 ± 0.23
55 | UUGAAGCAAUAUUACGACCG | -0.105 ± 0.28 | 0.113 ± 0.28
56 | AAGUAGCAAUAUUACGAUAA | -1.36 ± 0.12 | -1.09 ± 0.13
57 | GAUAAGCAAUAUUACGCUCC | -1.82 ± 0.34 | –
58 | UUCUAGCAAUAUUACGACCG | -1.13 ± 0.26 | -1.07 ± 0.42
59 | CCUGAGCAAUAUUACGUACA | -3.13 ± 0.33 | -0.722 ± 0.3
60 | AAAAAGCAAUAUUACGGCUU | -0.00557 ± 0.049 | 0.259 ± 0.066
61 | AAAUAGCAAUAUUACGUACU | 0.159 ± 0.063 | 0.295 ± 0.091
62 | AGAAAGCAAUAUUACGGUGG | -3.11 ± 0.18 | -2.32 ± 0.17
63 | GUGAAGCAAUAUUACGGCUU | -4.92 ± 0.36 | -3.3 ± 0.26
64 | CACUAGCAAUAUUACGUGGG | -3.99 ± 0.2 | -3.1 ± 0.22
65 | CGGGAGCAAUAUUACGACGG | -1.4 ± 0.23 | -0.65 ± 0.42
66 | CGAAAGCAAUAUUACGUGCU | -3.73 ± 0.18 | -2.41 ± 0.18
67 | ACAGAGCAAUAUUACGUUAA | -3.15 ± 0.15 | -2.21 ± 0.21
68 | GUCAAGCAAUAUUACGGGCA | -3.61 ± 0.41 | -2.97 ± 0.3
69 | CCUCAGCAAUAUUACGGCAA | -3.12 ± 0.24 | -2.41 ± 0.23
70 | GCUCAGCAAUAUUACGGGAG | -2.46 ± 0.12 | -1.22 ± 0.11
71 | CGCGAGCAAUAUUACGGGAU | -4.13 ± 0.23 | -2.59 ± 0.21
72 | AUGCAGCAAUAUUACGGCAG | -0.985 ± 0.11 | -1.29 ± 0.15
73 | CCAGAGCAAUAUUACGUGAC | -3.36 ± 0.19 | -3.93 ± 0.46
74 | UCCUAGCAAUAUUACGUUCA | -2.91 ± 0.35 | -2.38 ± 0.25
75 | GAUUAGCAAUAUUACGGGCU | -2.8 ± 0.15 | -1.28 ± 0.12

Row | Sequence | self-splicing fitness (ln) (30 °C) | self-splicing fitness (ln) (37 °C)
76 | GCGGAGCAAUAUUACGGGCA | – | -1.1 ± 0.47
77 | UUGUAGCAAUAUUACGUCAA | -0.947 ± 0.16 | -0.538 ± 0.16
78 | CUUUAGCAAUAUUACGCAAA | -2.51 ± 0.21 | -1.34 ± 0.2
79 | GAACAGCAAUAUUACGUUCC | -2.88 ± 0.36 | –
80 | AGUUAGCAAUAUUACGAUCA | -0.843 ± 0.13 | 0.619 ± 0.12
81 | CCACAGCAAUAUUACGACAC | -3.68 ± 0.29 | -1.5 ± 0.18
82 | ACUCAGCAAUAUUACGCGAC | -2.16 ± 0.14 | -1.85 ± 0.15
83 | ACUAAGCAAUAUUACGCUCG | -0.345 ± 0.09 | -0.528 ± 0.11
84 | AAGCAGCAAUAUUACGAUAU | -0.287 ± 0.076 | -0.0114 ± 0.099
85 | UGGUAGCAAUAUUACGGUUC | -3.54 ± 0.46 | -3.1 ± 0.47
86 | GAUUAGCAAUAUUACGCUUG | -0.829 ± 0.079 | -0.445 ± 0.093
87 | CCCUAGCAAUAUUACGGCUA | -2.53 ± 0.17 | -3.13 ± 0.31
88 | CGUUAGCAAUAUUACGGCAU | -2.01 ± 0.11 | -1.13 ± 0.12
89 | GAGCAGCAAUAUUACGGCAU | -0.308 ± 0.081 | -0.549 ± 0.094
90 | ACCUAGCAAUAUUACGUAUU | -1.84 ± 0.075 | -1.71 ± 0.11
91 | CUCUAGCAAUAUUACGCACG | -2.45 ± 0.17 | -1.95 ± 0.23
92 | GAACAGCAAUAUUACGCCGA | -0.857 ± 0.12 | -0.581 ± 0.1
93 | GCCUAGCAAUAUUACGUUAA | -1.86 ± 0.13 | -1.28 ± 0.13
94 | ACUGAGCAAUAUUACGGAAU | -3.39 ± 0.35 | -1.87 ± 0.23
95 | GCGGAGCAAUAUUACGAAGC | -2.45 ± 0.23 | -2.13 ± 0.4
96 | GGCAAGCAAUAUUACGGUUG | -1.16 ± 0.063 | -0.62 ± 0.083
97 | CGCGAGCAAUAUUACGGAUA | -1.66 ± 0.27 | –
